From paper PMC11170971 (2024)

Key:
[1] = molecular target: hTLR2 extracellular domain, purified recombinant (human, UniProt O60603 21-588); test: MST
[2] = molecular target: T1, zTLR4ba extracellular domain, purified recombinant (zebrafish); test: MST
T1 chain: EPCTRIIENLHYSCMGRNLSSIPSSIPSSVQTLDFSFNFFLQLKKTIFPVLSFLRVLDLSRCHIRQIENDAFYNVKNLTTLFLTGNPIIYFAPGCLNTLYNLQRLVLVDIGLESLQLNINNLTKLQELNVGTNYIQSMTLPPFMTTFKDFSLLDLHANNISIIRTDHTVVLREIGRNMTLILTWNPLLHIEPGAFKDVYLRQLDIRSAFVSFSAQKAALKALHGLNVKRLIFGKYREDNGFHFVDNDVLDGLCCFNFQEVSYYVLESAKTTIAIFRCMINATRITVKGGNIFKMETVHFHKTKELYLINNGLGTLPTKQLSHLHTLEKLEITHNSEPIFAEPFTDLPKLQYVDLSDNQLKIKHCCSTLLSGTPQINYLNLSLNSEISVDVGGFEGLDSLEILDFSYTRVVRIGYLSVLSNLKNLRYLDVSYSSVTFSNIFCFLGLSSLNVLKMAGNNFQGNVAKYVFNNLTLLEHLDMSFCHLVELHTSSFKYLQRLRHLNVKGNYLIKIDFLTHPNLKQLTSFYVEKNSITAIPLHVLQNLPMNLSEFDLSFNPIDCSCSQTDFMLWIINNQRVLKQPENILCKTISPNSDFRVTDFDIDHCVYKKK

Chain of hTLR2 extracellular domain, purified recombinant (O60603 21-588): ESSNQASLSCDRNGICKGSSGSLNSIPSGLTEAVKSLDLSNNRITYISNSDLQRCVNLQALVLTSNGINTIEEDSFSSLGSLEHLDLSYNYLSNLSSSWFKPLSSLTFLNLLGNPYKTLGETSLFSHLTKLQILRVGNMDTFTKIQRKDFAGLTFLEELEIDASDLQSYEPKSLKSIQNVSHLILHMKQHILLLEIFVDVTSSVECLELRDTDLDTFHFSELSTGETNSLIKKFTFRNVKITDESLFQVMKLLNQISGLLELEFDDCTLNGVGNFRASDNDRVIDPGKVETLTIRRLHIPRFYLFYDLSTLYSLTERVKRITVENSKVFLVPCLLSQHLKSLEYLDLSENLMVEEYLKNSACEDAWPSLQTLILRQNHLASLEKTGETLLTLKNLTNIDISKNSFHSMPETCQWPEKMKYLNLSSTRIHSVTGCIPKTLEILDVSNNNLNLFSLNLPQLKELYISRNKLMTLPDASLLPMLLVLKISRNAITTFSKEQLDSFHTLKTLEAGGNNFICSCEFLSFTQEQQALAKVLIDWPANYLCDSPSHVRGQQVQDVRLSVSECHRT

B1: recombinant His-tagged SpaC protein (SpaC pilin subunit of Lactobacillus rhamnosus GG) (natural protein)
chain: MTAKVARTGHLFAVLLILMSMLTGLVTSGSSVVTATDNIRPTYQTDANGTYPTNSWQVTGQQNVINQRGGDQVSGWDNNTIWNGDATDTTNSYLKFGDPNNPDYQIRKYAKETNTPGLYDVYLNVKGNKQQNVKPVDIVLVVDMSGSMESNRWGTNRAGAVRTGVKNFLTSIQNAGLGNYVNVGLIGFSSPGYIGGKSGYISVKLGKAGNASQQQAINGALSPRFQGGTYTQIGLRQGSAMLNADTSGNKKMMILLTDGVPTFSNEVINSEWINGTLYGTNFGSSRDEPGNTARLRWPYTDSSGHYIYDTWPATLGEAKIAKDSGNEVHALGIQLADDDHYMTKEKIRQNMQLITNSPDLYEDADSADAVEAYLNNQAKDIIKNFNTVTDGTITDPIGTQFQYANNQATVTSVGKQTVPASELPSAAIQDGQLTVNHMNLGQDQEVQIHYQVRIKTEDAGFKPDFWYQMNGETLLTPKAGAAAVDFGIPSGRAPATTVYVQKQWRQLSNQSLPDTLNVTVQRKVADGSLDPNWQQTLVLKKADNWKASFTAPAYNNQGQSFSYVVKSEDASGIDLSSFISSQNMDQQTATLTLTNQQYGFQFQKKTTDGTDLSADQLKAMQFNLTQYSDNSFQQASKTNAITSTDLQALAPGYYGIQEAAAPTGYQLDGTTYLFQLTSDGQWQYHGTKDNVTSGSVINGQQTLNPVGDKSDDFTVTGDHQQILTLTKYDEPKPSMTLRVIKQDNQSQYLAGAAFTLQPSAGEAETITSSATSEGQAFATKLVADGTYTMSETKAPDGYQSNPAKIAIQVATTGKEATVTIDGEALKPGESKNGYTLAIDGSTITLQAINQPLAILPHTGGQGYQRLLGIALGLISAAFLLLLVVLIKRRVVKQHD
modifications: labelled with Monolith Protein Labeling Kit Red-NHS (in the MST only)
- Kd [1]: 190 nM
- Kd [2]: 2980 nM
